From article PMC11931385, “Structural and functional analysis of cancer-associated missense variants in the retinoblastoma protein pocket domain” (The Journal of Biological Chemistry, 2025)
No end group written: not given here. TMR = tetramethyl rhodamine dye

T1: Rb^P K548N (human, UniProt P06400 380-788, K548N)
T1 construct: also called variant 26
T1 sequence (looked up): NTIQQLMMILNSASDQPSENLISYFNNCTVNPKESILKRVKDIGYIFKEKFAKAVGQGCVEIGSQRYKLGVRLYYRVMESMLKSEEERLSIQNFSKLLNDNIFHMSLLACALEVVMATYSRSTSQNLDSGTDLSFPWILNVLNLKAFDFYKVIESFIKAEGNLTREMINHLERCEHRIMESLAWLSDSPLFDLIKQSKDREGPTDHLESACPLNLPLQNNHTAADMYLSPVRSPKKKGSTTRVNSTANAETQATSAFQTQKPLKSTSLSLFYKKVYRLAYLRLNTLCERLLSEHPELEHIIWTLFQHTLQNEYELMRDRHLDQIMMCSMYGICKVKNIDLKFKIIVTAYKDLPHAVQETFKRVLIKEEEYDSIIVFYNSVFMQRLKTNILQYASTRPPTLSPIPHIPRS

T2: Rb^P T687I (human, UniProt P06400 380-788, T687I)
T2 construct: also called variant 59
T2 sequence (looked up): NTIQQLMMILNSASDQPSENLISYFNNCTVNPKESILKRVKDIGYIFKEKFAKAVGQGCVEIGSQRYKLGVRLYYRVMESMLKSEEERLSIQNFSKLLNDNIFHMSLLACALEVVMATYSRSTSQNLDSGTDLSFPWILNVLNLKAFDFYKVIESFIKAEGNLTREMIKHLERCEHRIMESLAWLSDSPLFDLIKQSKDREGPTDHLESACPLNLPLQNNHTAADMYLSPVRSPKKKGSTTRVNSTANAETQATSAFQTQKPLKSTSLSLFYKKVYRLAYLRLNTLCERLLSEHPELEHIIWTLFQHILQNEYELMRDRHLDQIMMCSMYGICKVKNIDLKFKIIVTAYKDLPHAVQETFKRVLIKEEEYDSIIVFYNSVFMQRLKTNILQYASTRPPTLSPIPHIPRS

T3: Rb^P M704V (human, UniProt P06400 380-788, M704V)
T3 construct: also called variant 66
T3 sequence (looked up): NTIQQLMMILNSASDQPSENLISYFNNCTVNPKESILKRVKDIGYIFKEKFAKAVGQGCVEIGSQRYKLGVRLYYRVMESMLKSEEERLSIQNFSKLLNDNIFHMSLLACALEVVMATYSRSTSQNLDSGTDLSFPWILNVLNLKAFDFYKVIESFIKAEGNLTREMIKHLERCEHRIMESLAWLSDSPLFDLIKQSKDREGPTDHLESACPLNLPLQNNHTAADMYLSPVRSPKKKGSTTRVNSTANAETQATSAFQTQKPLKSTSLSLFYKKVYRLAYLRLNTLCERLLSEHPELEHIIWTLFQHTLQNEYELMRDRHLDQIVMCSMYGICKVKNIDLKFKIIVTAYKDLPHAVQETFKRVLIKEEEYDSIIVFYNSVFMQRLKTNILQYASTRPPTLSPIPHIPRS

T4: Rb^P H673P (human, UniProt P06400 380-788, H673P)
T4 construct: also called variant 54
T4 sequence (looked up): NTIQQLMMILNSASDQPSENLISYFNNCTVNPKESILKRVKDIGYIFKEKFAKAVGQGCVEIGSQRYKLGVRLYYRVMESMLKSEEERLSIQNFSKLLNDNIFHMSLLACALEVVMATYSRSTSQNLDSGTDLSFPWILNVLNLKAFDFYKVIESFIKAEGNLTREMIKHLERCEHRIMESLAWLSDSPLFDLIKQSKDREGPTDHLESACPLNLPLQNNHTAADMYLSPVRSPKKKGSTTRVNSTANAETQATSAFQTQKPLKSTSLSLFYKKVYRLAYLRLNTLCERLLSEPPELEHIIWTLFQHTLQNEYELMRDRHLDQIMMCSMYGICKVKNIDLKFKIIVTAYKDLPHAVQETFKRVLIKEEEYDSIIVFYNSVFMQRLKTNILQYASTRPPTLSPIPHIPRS

T5: Rb^P K530I (human, UniProt P06400 380-788, K530I)
T5 construct: also called variant 21
T5 sequence (looked up): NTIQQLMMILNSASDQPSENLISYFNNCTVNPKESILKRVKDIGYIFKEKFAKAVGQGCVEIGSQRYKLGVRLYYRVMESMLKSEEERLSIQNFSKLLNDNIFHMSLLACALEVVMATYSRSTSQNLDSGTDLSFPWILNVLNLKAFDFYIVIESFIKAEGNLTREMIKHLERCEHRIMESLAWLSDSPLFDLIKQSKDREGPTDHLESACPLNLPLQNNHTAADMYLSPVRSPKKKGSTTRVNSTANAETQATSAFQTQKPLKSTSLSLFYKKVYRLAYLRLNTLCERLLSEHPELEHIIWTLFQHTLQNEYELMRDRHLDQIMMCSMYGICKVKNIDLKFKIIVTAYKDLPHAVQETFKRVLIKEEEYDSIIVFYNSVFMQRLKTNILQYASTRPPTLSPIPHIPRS


Tests used:
Assay in all cases: fluorescence polarisation; 37 °C, after the 25 °C reading ramped over 7 min to 37 °C and 2 min incubation; unlabeled Rb^P against 1.5 nM TMR-E2F1^TD or 7.5 nM TMR-E7^LxCxE; 25 mM Tris pH 8.0, 200 mM NaCl, 1 mM DTT, 0.1% Tween-20; apparent Kd
Conditions in all cases: both partners purified
Rb^P K548N = target: T1, Rb^P K548N
Rb^P T687I = target: T2, Rb^P T687I
Rb^P M704V = target: T3, Rb^P M704V
Rb^P H673P = target: T4, Rb^P H673P
Rb^P K530I = target: T5, Rb^P K530I

Binder | Kd (Rb^P K548N) [nM] | Kd (Rb^P T687I) [nM] | Kd (Rb^P M704V) [nM] | Kd (Rb^P H673P) [nM] | Kd (Rb^P K530I) [nM]
{TMR}-GEGIRDLFDCDFGDLTPLD (also called E2F^TD; source: synthetic peptide, bought: GenScript) [TMR-E2F1^TD, peptide of the E2F1 transactivation domain] | 178 | 40 | 129 | 98 | 1680
DLYCYEQLN (also: TMR label, position not given here, source: synthetic peptide, bought: GenScript) [TMR-E7^LxCxE, LxCxE peptide of the E7 oncoprotein from HPV] | 15 | 29 | 51 | 83 | 20
